Assays:
Lsm1-7 complex = molecular target: T1, Lsm1-7 complex (S. pombe, UniProt P87173 1-140; O94408 1-96; Q9Y7M4 1-93; O14352 1-121; O42978 1-80; Q9UUI1 1-75; …); test: SEC; PatMC co-expressed with His6-Lsm1-7 in E. coli, co-purified on Ni-NTA and heparin, TEV, then preparative Superdex 200 16/60 in 400 mM NaCl, 20 mM HEPES 7.0, 1 mM DTT; SDS-PAGE of the complex; conditions: both partners purified
T1 construct: Lsm1, S. pombe; from a polycistron of all seven Lsm proteins; Lsm2, S. pombe; Lsm3, S. pombe; Lsm4, S. pombe; Lsm5, S. pombe; Lsm6, S. pombe; Lsm7, S. pombe; Expected mass of the monomeric complex 81 kDa; In the droplet experiment 0.1 uM of it carried Alexa Fluor 555 maleimide; In the co-purification with PatMC the His6 tag on Lsm1 was present on Ni-NTA and cut by TEV before gel filtration; also …
T1 sequence (Q9Y7M4 whole entry, chain 3 of 2): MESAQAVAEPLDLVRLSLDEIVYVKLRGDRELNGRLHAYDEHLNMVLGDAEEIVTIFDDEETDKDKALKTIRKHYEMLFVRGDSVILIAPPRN
T1 sequence (O42978 whole entry, chain 5 of 2): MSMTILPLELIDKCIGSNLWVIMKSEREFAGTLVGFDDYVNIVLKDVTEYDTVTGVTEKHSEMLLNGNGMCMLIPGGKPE

[1] = molecular target: the molecule itself; test: AUC; sedimentation velocity, 9.3 uM PatMC/Lsm1-7 without RNA, 250 mM NaCl, 20 mM HEPES pH 7.0, 1 mM DTT, 30,000 rpm, 10-12 hours
[2] = molecular target: the molecule itself; test: AUC; sedimentation velocity, 9.3 uM PatMC/Lsm1-7 with stoichiometric A15 RNA, 250 mM NaCl, 20 mM HEPES pH 7.0, 1 mM DTT, 30,000 rpm, 10-12 hours

Row | binding result (Lsm1-7 complex) | Binder | stoichiometry N [1] | stoichiometry N [2]
1 | binds | PatMC (middle and C-terminal domains of Pat1, residues 296-754) (domain or fragment, S. pombe, UniProt O42958 296-754, looked up, Pat1, S. pombe, middle and C-terminal domains (PatMC), residues 296-754; codon optimized gene in site two of pET-Duet; No tag is told for PatMC in the co-expression construct; source: E. coli BL21(DE3)*, co-expressed with Lsm1-7 from pET-Duet, co-purified (Ni-NTA, heparin, Superdex 200)) LDEKRQKLERDHMLMAQCAGLMTRSDKSFIARIQISQLMSEDPESDDFYYRVYSIIRGRKPSEEEASHFIQTYLGPSNNRRRGRRSENPMQKLQQQLQRLVSSAKERPKATQLSLEGALGKIAVNTVRTPRQLLNVKRPTEPASSNSSLNNFSGFSTKKDVLHAIEKVYDLLLDFEQALRKASTLETTDQEQIDTWKTTLSEKLESIWKALYINESLEASSKTRPPFISIISHPKGMRLLPRLFPHLSKEQQISILKVVVYNFDSLDIVLRGTFDVNGELPLDVVSEMSSFTQFIIPPLLTIVNELDLETINNLFSQLLNRTNAVYLIQTKIGLSFLTLFISRAEILKQSGTVNQNEKEEWENTFNVMFNRVKGHFSTVFPPPNARAYADESYPWEFLAACATAASSEQHFTLVSETRDRVLDNIITSKRAPSEIAVVRISNVNLFLNAMGLDARQLSA |  | 
2 |  | PatMC/Lsm1-7 complex (complex, Pat1, S. pombe, middle and C-terminal domains (PatMC), residues 296-754; codon optimized gene in site two of pET-Duet; Lsm1, S. pombe; from a polycistron of all seven Lsm proteins; Lsm2, S. pombe; Lsm3, S. pombe; Lsm4, S. pombe; Lsm5, S. pombe; Lsm6, S. pombe; Lsm7, S. pombe; Heterooctamer, expected mass of the monomeric complex 133 kDa; TEV was added before gel filtration to remove the His6 tag …) chain 1: LDEKRQKLERDHMLMAQCAGLMTRSDKSFIARIQISQLMSEDPESDDFYYRVYSIIRGRKPSEEEASHFIQTYLGPSNNRRRGRRSENPMQKLQQQLQRLVSSAKERPKATQLSLEGALGKIAVNTVRTPRQLLNVKRPTEPASSNSSLNNFSGFSTKKDVLHAIEKVYDLLLDFEQALRKASTLETTDQEQIDTWKTTLSEKLESIWKALYINESLEASSKTRPPFISIISHPKGMRLLPRLFPHLSKEQQISILKVVVYNFDSLDIVLRGTFDVNGELPLDVVSEMSSFTQFIIPPLLTIVNELDLETINNLFSQLLNRTNAVYLIQTKIGLSFLTLFISRAEILKQSGTVNQNEKEEWENTFNVMFNRVKGHFSTVFPPPNARAYADESYPWEFLAACATAASSEQHFTLVSETRDRVLDNIITSKRAPSEIAVVRISNVNLFLNAMGLDARQLSA chain 2: MNQATQIIPFTTSGSLVDYVDRKVIVVLRDGKKLIGILRSFDQFANLMLQYTIERIYVDDMYGDIDRGVYIVRGENVVLLGELDLDKEYDAVKQLRRMPAEELYPLAKLHEEEKKKNIREKGKYLHSVGFSVDGGHDDLY chain 3: MLFYSFFKTLIDTEVTVELKNDMSIRGILKSVDQFLNVKLENISVVDASKYPHMAAVKDLFIRGSVVRYVHMSSAYVDTILLADACRRDLANNKRQ chain 4: not shown chain 5: MLPLTLLNATQGRPILVELKNGETFNGHLENCDNYMNLTLREVIRTMPDGDKFFRLPECYIRGNNIKYLRIQDEVLSQVAKQQAQQRENRGSRFRGRGQRGRGNYGHTAPNRRGRGRGGHM chain 6: not shown chain 7: MDSSPNEFLNKVIGKKVLIRLSSGVDYKGILSCLDGYMNLALERTEEYVNGKKTNVYGDAFIRGNNVLYVSALDD chain 8: MSSLQKRPGPGNSSQPTERPRKESILDLSRYQDQRIQATFTGGRQITGILKGFDQLMNLVLDDVEEQLRNPEDGKLTGAIRKLGLVVVRGTTLVLIAPMDGSEEIPNPFVQAE | 2 | 4

Reference: doi:10.1101/2020.04.07.029900, “Pat1 increases the range of decay factors and RNA bound by the Lsm1-7 complex” (bioRxiv, 2020)
